Reference: publication doi:10.1101/870071 (bioRxiv, 2019)
One block for each binder: values may come before it.

Experiments:
GST-hExo70 (human Exo70) = GST-hExo70 (human Exo70) (human, UniProt Q9UPT5 1-735); assay: pull-down
GST-Exo70p (yeast Exo70) = GST-Exo70p (yeast Exo70) (yeast, UniProt P19658 1-623); assay: pull-down
Sequence of GST-Exo70p (yeast Exo70) (P19658 whole entry): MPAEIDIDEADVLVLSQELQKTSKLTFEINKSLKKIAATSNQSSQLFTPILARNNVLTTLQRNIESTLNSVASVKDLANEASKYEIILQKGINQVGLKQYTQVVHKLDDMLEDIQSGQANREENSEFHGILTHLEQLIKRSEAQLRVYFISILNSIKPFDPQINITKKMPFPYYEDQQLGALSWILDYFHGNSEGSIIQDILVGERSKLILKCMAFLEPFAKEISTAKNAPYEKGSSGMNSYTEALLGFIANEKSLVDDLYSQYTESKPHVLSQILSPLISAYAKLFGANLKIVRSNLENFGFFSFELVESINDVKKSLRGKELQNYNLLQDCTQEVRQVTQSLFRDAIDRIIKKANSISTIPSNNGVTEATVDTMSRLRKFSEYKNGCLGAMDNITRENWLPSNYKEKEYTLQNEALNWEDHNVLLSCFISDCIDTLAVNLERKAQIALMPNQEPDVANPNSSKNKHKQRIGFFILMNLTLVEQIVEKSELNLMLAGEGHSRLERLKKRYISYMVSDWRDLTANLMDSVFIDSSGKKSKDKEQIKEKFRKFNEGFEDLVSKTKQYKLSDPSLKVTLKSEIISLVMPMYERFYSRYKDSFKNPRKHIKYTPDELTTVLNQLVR

Sequence of GST-hExo70 (human Exo70) (Q9UPT5 whole entry): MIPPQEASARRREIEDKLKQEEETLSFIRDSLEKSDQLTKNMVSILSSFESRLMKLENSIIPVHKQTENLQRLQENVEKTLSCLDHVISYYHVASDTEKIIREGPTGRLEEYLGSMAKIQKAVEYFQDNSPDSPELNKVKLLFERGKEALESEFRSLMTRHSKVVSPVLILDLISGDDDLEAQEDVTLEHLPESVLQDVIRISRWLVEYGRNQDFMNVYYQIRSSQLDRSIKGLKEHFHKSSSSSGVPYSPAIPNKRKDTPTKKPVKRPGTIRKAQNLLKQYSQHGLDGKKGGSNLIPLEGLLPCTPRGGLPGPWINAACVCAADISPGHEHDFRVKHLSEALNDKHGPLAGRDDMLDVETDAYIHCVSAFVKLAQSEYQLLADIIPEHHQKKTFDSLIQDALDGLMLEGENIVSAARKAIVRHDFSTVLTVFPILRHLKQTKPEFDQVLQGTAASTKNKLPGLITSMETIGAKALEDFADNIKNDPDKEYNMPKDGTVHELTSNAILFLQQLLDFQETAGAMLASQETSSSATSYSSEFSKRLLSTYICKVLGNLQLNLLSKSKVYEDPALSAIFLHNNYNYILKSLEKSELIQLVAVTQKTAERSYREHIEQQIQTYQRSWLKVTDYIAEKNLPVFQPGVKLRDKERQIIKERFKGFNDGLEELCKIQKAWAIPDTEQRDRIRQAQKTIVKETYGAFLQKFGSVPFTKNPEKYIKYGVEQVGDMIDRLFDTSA

fold binding against yeast Exo70p (GST-hExo70 (human Exo70)): 4 fold
B1: His-GIV-CT (C-terminus of GIV/Girdin), wild type (domain or fragment)
chain: SETLESRHHKIKTGSPGSEVVTLQQFLEESNKLTSVQIKSSSQENLLDEVMKSLSVSSDFLGKDKPVSCGLARSVSGKTPGDFYDRRTTKPEFLRPGPRKTEDTYFISSAGKPTPGTQGKIKLVKESSLSRQSKDSNPYATLPRASSVISTAEGTTRRTSIHDFLTKDSRLPISVDSPPAAADSNTTAASNVDKVQESRNSKSRSREQQSS

fold binding against human Exo70 (GST-Exo70p (yeast Exo70)): 2 fold
B2: His-Bem1p (natural protein, yeast, UniProt P29366 1-551, looked up)
chain: MLKNFKLSKRDSNGSKGRITSADISTPSHDNGSVIKHIKTVPVRYLSSSSTPVKSQRDSSPKNRHNSKDITSPEKVIKAKYSYQAQTSKELSFMEGEFFYVSGDEKDWYKASNPSTGKEGVVPKTYFEVFDRTKPSSVNGSNSSSRKVTNDSLNMGSLYAIVLYDFKAEKADELTTYVGENLFICAHHNCEWFIAKPIGRLGGPGLVPVGFVSIIDIATGYATGNDVIEDIKSVNLPTVQEWKSNIARYKASNISLGSVEQQQQQSITKPQNKSAKLVDGELLVKASVESFGLEDEKYWFLVCCELSNGKTRQLKRYYQDFYDLQVQLLDAFPAEAGKLRDAGGQWSKRIMPYIPGPVPYVTNSITKKRKEDLNIYVADLVNLPDYISRSEMVHSLFVVLNNGFDREFERDENQNNIKTLQENDTATFATASQTSNFASTNQDNTLTGEDLKLNKKLSDLSLSGSKQAPAQSTSGLKTTKIKFYYKDDIFALMLKGDTTYKELRSKIAPRIDTDNFKLQTKLFDGSGEEIKTDSQVSNIIQAKLKISVHDI
